Experimental data as given in PMC314469, “Protein Interaction Networks by Proteome Peptide Scanning” (PLoS Biology, 2004).

T1: Boi1 SH3 (BOI1_YEAST), P38041
T1 chain: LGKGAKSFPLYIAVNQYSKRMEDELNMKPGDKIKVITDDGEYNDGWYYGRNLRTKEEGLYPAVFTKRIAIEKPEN

T2: Boi2 SH3 (BOI2_YEAST), P39969
T2 chain: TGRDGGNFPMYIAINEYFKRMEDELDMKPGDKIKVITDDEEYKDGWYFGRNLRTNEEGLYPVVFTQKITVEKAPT

T3: Myo5 SH3 (MYO5_YEAST), Q04439
T3 chain: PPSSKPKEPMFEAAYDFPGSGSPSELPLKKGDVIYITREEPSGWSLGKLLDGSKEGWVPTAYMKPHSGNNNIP

T4: Rvs167 SH3 (RV167_YEAST), P39743
T4 chain: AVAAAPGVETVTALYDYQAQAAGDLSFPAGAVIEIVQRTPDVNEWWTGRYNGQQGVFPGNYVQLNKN

T5: Yfr024 SH3 (LSB3_YEAST), P43603
T5 chain: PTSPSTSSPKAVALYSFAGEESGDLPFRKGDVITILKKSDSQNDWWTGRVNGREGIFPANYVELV

T6: Yhr016c SH3 (YSC84_YEAST), P32793
T6 chain: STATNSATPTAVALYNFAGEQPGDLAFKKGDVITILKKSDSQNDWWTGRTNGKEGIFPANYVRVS


Columns and labels:
Experiment in all cases: SPOT array
[1] = target: T1, Boi1 SH3 (BOI1_YEAST), P38041
[2] = target: T2, Boi2 SH3 (BOI2_YEAST), P39969
[3] = target: T3, Myo5 SH3 (MYO5_YEAST), Q04439
[4] = target: T4, Rvs167 SH3 (RV167_YEAST), P39743
[5] = target: Sho1 SH3 (SHO1_YEAST), P40073
Sequence of Sho1 SH3 (SHO1_YEAST), P40073 (P40073 295-366): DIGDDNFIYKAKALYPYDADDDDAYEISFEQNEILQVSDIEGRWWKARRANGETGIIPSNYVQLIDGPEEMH

[6] = target: T5, Yfr024 SH3 (LSB3_YEAST), P43603
[7] = target: T6, Yhr016c SH3 (YSC84_YEAST), P32793

Row | Binder | normalised SPOT signal, Boehringer light units (BLU); mean over the file's lines of this peptide [1] | normalised SPOT signal, Boehringer light units (BLU); mean over the file's lines of this peptide [2] | normalised SPOT signal, Boehringer light units (BLU); mean over the file's lines of this peptide [3] | normalised SPOT signal, Boehringer light units (BLU); mean over the file's lines of this peptide [4] | normalised SPOT signal, Boehringer light units (BLU); mean over the file's lines of this peptide [5] | normalised SPOT signal, Boehringer light units (BLU); mean over the file's lines of this peptide [6] | normalised SPOT signal, Boehringer light units (BLU); mean over the file's lines of this peptide [7]
1 | KMAKKLLPYKPHNS [YBR270C 208-221] | 156 | 9.1 | 708 | 37.6 | 522 | 182 | 37.4
2 | KLPKKFPPPTPLLE [YER172C 1312-1325] | 821 | 0 | 19700 | 10.1 | 69.2 | 39.9 | 6
3 | KKIIKDVPGTPSDK [YLR079W 164-177] | 3810 | 5.6 | 163 | 65.3 | 155 | 16.7 | 20
4 | KLVLRNVPILPILN [YBL008W 776-789] | 41.9 | 17.3 | 303 | 383 | 24.2 | 1510 | 74.5
5 | KKKKKNGPGAPQGY [YGR245C 314-327] | 329 | 20.2 | 329 | 23.5 | 106 | 159 | 56.7
6 | KLHEKYFPDLPKEV [YDR527W 252-265] | 90.7 | 15.3 | 110 | 57.3 | 30.2 | 30.7 | 4.5
7 | KKNDRPSPLKPIQH [YKL101W 860-873] | 2190 | 0 | 341 | 49.2 | 67.4 | 254 | 44.4
8 | KLKIKILPEQPQLE [YDR407C 838-851] | 1350 | 0 | 261 | 56.9 | 548 | 6 | 17.7
9 | KKVIRNYPGHPEGT [YDR364C 152-165] | 582 | 24.6 | 418 | 29 | 64.4 | 34.3 | 14

Other lines, results leading:

Row | normalised SPOT signal, Boehringer light units (BLU); mean over the file's lines of this peptide [1] | normalised SPOT signal, Boehringer light units (BLU); mean over the file's lines of this peptide [2] | normalised SPOT signal, Boehringer light units (BLU); mean over the file's lines of this peptide [3] | normalised SPOT signal, Boehringer light units (BLU); mean over the file's lines of this peptide [4] | normalised SPOT signal, Boehringer light units (BLU); mean over the file's lines of this peptide [5] | normalised SPOT signal, Boehringer light units (BLU); mean over the file's lines of this peptide [6] | normalised SPOT signal, Boehringer light units (BLU); mean over the file's lines of this peptide [7] | Binder
10 | 779 | 1 | 720 | 147 | 103 | 190 | 89.5 | KKIAKGDPKIPMQN [YNL155W 157-170]
11 | 309 | 1.5 | 919 | 810 | 1390 | 2670 | 165 | KLNKRVLPSKPKKS [YLR183C 350-363]
12 | 541 | 38 | 523 | 65.1 | 102 | 540 | 179 | KKNKKKVPLNPLAK [YNL050C 247-260]
13 | 725 | 66.4 | 1010 | 143 | 136 | 291 | 70.6 | KKNPKKSPMGPQGA [YPL214C 146-159]
14 | 599 | 27.1 | 916 | 153 | 126 | 756 | 86.9 | KLYYRHRPQKPVRT [YOL164W 144-157]
15 | 1220 | 42.3 | 307 | 301 | 102 | 978 | 332 | KMSAKNTPKHPVDI [YPL082C 209-222]
16 | 0 | 13.9 | 164 | 16.2 | 33.3 | 1.3 | 26.6 | KNIIKYVPWGPPLE [YLR142W 425-438]
